Measurements published in patent CN115490771A (HEFEI TIANGANG IMMUNOLOGY PHARMACEUTICAL CO LTD, dated 2022).

Columns and labels:
[1] = biological target: T1, CD155 on tumour cells (NCI-H1299, NCI-H358, HepG2) (UniProt P15151 21-417, limits assumed); assay: flow cytometry on NCI-H1299 lung cancer cells, Alexa-647 anti-human Fc secondary antibody
T1 construct: whole, on cells; also called 表达CD155的肺癌NCI-H1299细胞; NCI-H358细胞
T1 sequence (looked up): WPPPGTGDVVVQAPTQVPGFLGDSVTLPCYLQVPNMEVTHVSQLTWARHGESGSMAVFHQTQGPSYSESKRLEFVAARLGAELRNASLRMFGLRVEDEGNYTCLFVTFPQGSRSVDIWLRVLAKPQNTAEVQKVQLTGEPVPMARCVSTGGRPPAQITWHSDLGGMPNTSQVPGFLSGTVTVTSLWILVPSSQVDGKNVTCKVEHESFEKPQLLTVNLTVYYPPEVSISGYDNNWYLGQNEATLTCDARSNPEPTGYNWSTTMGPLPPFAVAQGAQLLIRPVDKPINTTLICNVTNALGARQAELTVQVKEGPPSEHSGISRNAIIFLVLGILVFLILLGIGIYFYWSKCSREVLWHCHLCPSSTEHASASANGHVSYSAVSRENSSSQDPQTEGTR

[2] = biological target: T2, CD155蛋白 on CHO-K1-CD155 cells (Homo sapiens (Human), UniProt P15151 21-417); assay: flow cytometry on CHO-K1-CD155 cells, Alexa-647 anti-human Fc secondary antibody
T2 construct: also called CHO-K1-CD155细胞
T2 sequence: T1 sequence (looked up)

B1: 双特异抗体 CD3×TIGIT extra (重组双特异抗体, 实施例1) (bispecific antibody, IgG1)
chain 1: EVQLLESGGGLVQPGGSLKLSCAASGFTFNTYAMNWVRQAPGKGLEWVARIRSKYNNYATYYADSVKDRFTISRDDSKNTAYLQMNNLKTEDTAVYYCVRHGNFGNSYVSWFAYWGQGTLVTVSSGGGGSGGGGSGGGGSELVVTQEPSLTVSPGGTVTLTCRSSTGAVTTSNYANWVQQKPGQAPRGLIGGTNKRAPGTPARFSGSLLGGKAALTLSGVQPEDEAEYYCALWYSNLWVFGGGTKLTVLGGGGSPKSCDKTHTCPPCPAPEAAGGPSVFLFPPKPKDTLMISRTPEVTCVVVDVSHEDPEVKFNWYVDGVEVHNAKTKPREEQYNSTYRVVSVLTVLHQDWLNGKEYKCKVSNKALPAPIEKTISKAKGQPREPQVYTLPPSREEMTKNQVSLWCLVKGFYPSDIAVEWESNGQPENNYKTTPPVLDSDGSFFLYSKLTVDKSRWQQGNVFSCSVMHEALHNHYTQKSLSLSPGK
chain 2: MMTGTIETTGNISAEKGGSIILQCHLSSTTAQVTQVNWEQQDQLLAICNADLGWHISPSFKDRVAPGPGLGLTLQSLTVNDTGEYFCIYHTYPDGTYTGRIFLEVLESSVAEHGARFQIPGGGGSPKSCDKTHTCPPCPAPEAAGGPSVFLFPPKPKDTLMISRTPEVTCVVVDVSHEDPEVKFNWYVDGVEVHNAKTKPREEQYNSTYRVVSVLTVLHQDWLNGKEYKCKVSNKALPAPIEKTISKAKGQPREPQVYTLPPSREEMTKNQVSLSCAVKGFYPSDIAVEWESNGQPENNYKTTPPVLDSDGSFFLVSKLTVDKSRWQQGNVFSCSVMHEALHNHYTQKSLSLSPGK
notes: Two-chain heterodimer joined through knob-into-hole IgG1 Fc regions; also called 双特异性抗体; 重组抗体
B1: binds [1]; binds [2].
